Results on 14 proteins are retold here after patent US20250027068.

Residue numbers refer to the chain shown, from its start.

B1: PRT-119 (protein)
chain: MRNATEAYAKETPKQITSVWTKGVTPPTPEQFRYNNEDVFHAPYVANQGWYDITKTFDGKDNLLCGAATAGNMLHWWFDQNKTEIEKYLSKHPEKQKIIFNNQELFDLKAAIDTKDSQTNSQLFNYFRDKAFPNLSARQLGVMPDLVLDMFINGYYLNVTKTQSTDVNRPYQDKDKRGGIFDAVFTRGDQTKLLTARHDLGNKSLNEISQLIKQELQEGKALALSHTYANVRISHVINLWGADFDAEGNLEAIYVTDSDSNASIGMKKYYVGVNSAGKVAISAKKIEGENIGAQVLGLFTLSSGKDIWQKLS
B2: PRT-115 (protein)
chain: MRNATEAYAKETPKTITSVWTKGVTPPTPEQFRYNGEDVIHAPYLAHQGWYDITKTFDGKDNLLCGAATAGNMLHWWFDQNKTEIERYLKKHPEKQKIIFNNQELFDLKAAIDTKDSQTNSALFNYFRDKAFPNLSARQLGVMPDLVLDMFINGYYLNVTKTQSTDVNRPYQTKDKRGGIFDAVFTRGDQTKLLTARHDLKNKTLNDISTLIKQELTEGKALALSHTYANVSISHVINLWGADFNAEGNLEAIYVTDSDSNASIGMKKYFVGVNAAGKVAISAKKIKGENIGAQVLGLFTLSSGKDIWQKLS
B3: PRT-118 (protein)
chain: MRNATEAYNKETPKTITSVWTKGVTPPTPEQFTKQNEDVFHAPYVANQGWYDITKTFNGKDNLLCGAATAGNMLHWWFDQNKTEIENYLKKHPEKQKIIFNNQELFDLKAAIDTKDSQTNSALFNYFRDKAFPNLSARQLGVMPDHVLDMFINGYYLNVNKTQSTDVNRPYDDKDKRGGIFDAVFTRGDQTTLLTARHDLKNKGLNEISTLIKQELTEGRALALSHTYANVSISHVINLWGADFNAEGNLEAIYVTDSDANASIGMKKYFVGKNASGKVAISAKKIEGDNIGAQVLGLFTLSSGKDIWQKLS
B4: PRT-123 (protein)
chain: MRNATEAYNKESPHTITSVWTKGVTPPTPEDFRYNNEDVLHAPYVANQGWYDITKTFDGKDNLLCGAATAGNMLHWWFDQNKEEIERYLKKHPEKQKIIFNNQELFDVKAAIDTKDSQTNSKLFNYFRDKAFPNLSARQLGVMPDLVLDMFINGYYLNLGKTQSTDVNRPYQDKDKRGGIFDAVFTRGDQTTLLTARHDLKNKGLNEISDLIKQELTEGKALALSHTYANVRINHVINLWGADFDAEGNLIAIYVTDSDANASIGMKKYFVGVNANGKVAISAKKIEGDNIGAQVLGLFTLSTGQDIWQKLS
B5: PRT-116 (protein)
chain: MRNATEAYNKATPTTITSVWTKGVTPPTPEQFRYNNEDVFHAPYKAHQGWYDITKTFNGKDNLLCGAATAGNMLHWWFDQNKTEIEAYLSKHPEKQKIIFNNQELFDLKAAIDTKDSQTNSQLFNYFRDKAFPNLSARQLGVMPDLVLDMFINGYYLNVFKTQSTDVNRPYQDKDKRGGIFDAVFTRGDQTKLLTARHDLKDKGLNEISDLIKQELTEGKALALSHTYANVRISHVINLWGADFNAEGNLEAIYVTDSDANASIGMKKYFVGVNSSGHVAISAKKIEGENIGAQVLGLFTLSSGKDIWQKLS
B6: PRT-10 (protein)
chain: MANQEIRYSEVTPYTVTSVWTKGVTPPANFTQGEDVFHAPYVANQGWYDITKTFNGKDDLLCGAATAGNMLHWWFDQNKEQIERYLKEHPEKQKINFNGEQMFDVKEAIDTKDSQLDSELFEYFKEKAFPYLSTKHLGVFPDHVIDMFINGYRLSLTNHGPTPVKEGSKDPRGGIFDAVFTRGDQSKLLTSRHDFKEKTLKEISDLIKKELTEGKALALSHTYANVRINHVINLWGADFDSEGNLEAIYVTDSDSNASIGMKKYFVGVNSAGKVAISAKEIEDDNIGAQVLGLFTLSTGQDIWNQTN
B7: PRT-114 (protein)
chain: MRNATEAYNEETPHQITSVWTKGVTPPTPEQFRYNNEDVIHAPYLANQGWYDITKTFNGKDNLLCGAATAGNMLHWWFDQNKTEIEAYLSKHPEKQKIIFNNQELFDLKAAIDTKDSQTNSQLFNYFREKAFPNLSARQLGVMPDLVLDMFINGYYLNVTKTQSTDVNRPYQDKDKRGGIFDAVFTRGDQTKLLTARHDLKNKTLNEISTLIKQELTEGRALALSHTYANVSISHVINLWGADFNAEGNLEAIYVTDSDANASIGMKKYFVGVNAAGHVAISAKKIEGENIGAQVLGLFTLSSGKDIWQKLS
B8: PRT-124 (protein)
chain: MRNATEAYAKEVPHQITSVWTKGVTPLTPEQFRYNNEDVIHAPYLAHQGWYDITKTFDGKDNLLCGAATAGNMLHWWFDQNKTEIEAYLSKHPEKQKIIFNNQELFDLKAAIDTKDSQTNSQLFNYFRDKAFPNLSARQLGVMPDLVLDMFINGYYLNVFKTQSTDVNRPYQDKDKRGGIFDAVFTRGDQTTLLTARHDLKNKGLNDISTIIKQELTEGKALALSHTYANVSISHVINLWGADFNAEGNLEAIYVTDSDANASIGMKKYFVGVNAHGKVAISAKKIEGENIGAQVLGLFTLSSGKDIWQKLS
B9: PRT-125 (protein)
chain: B8 chain with I40F, H47N, T192K, I211L, K278H
B10: PRT-126 (protein)
chain: B8 chain with H47N, T210D, I211L, A260S, H276A, K278H
B11: PRT-120 (protein)
chain: MRNATEAYNEETPKQITSVWTKGVTPLTPEDFRYNNEDVFHAPYLANQGWYDITKTFNGKDNLLCGAATAGNMLHWWFDQNKEEIEAYLKKHPEKQKIIFNNQELFDLKAAIDTKDSQTNSQLFNYFKDKAFPNLSARQLGVMPDLVLDMFINGYYLNVNKTQSTDVNRPYQDKDKRGGIFDAVFTRGDQTKLLTERHDLKNKGLNDISTLIKQELTEGKALALSHTYANVSINHVINLWGADFDAEGNLEAIYVTDSDSNESIGMKKYFVGINAAGKVAISAKKIEDENIGAQVLGLFTLSSGKDIWQQLS
B12: PRT-122 (protein)
chain: MRNATEAYAKEVPKKITSVWTKGVTPLTPEQFIYQNEDVFHAPYLAHQGWYDITKTFNGKDNLLCGAATAGNMLHWWFDQNKEEIERYLSKHPEKQKIIFNNQELFDLKAAIDTKDSQTNSALFNYFRDKAFPNLSARQLGVMPDLVLDMFINGYYLNVTKTQSTDVNRPYQTKDKRGGIFDAVFTRGDQTKLLTERHDLKNKTLEEISQLIKQELTEGKALGLSHTYANVRISHVINLWGADFDAEGNLEAIYVTDSDSNASIGMKKYFVGVNASGKVAISAKKIEDDNIGAQVLGLFTLSSGKDIWEKLS
B13: PRT-121 (protein)
chain: MRNATEAYNEDTPKQITSVWTKGVTPPTPEQFRKYNEDVLHAPYIANQGWYDITKTFNGKDDLLCGAATAGNMLHWWFDQNKTEIEAYLSKYPEKQKIIFNNQELFDLRAAIDTKDSQTNSALFNYFRDKAFPNLSARQLGVMPDLVLDMFINGYYLNVTKTQSTDVNRPYQTKDKRGGIFDAVFTRGDQTTLLTSRHDLKNKTLNEISDLIKQELTEGKALALSHTYANVSISHVINLWGADFNAEGNLEAIYVTDSDANASIGMKKYFVGVNAAGKVAISAKKIEGENIGAQVLGLFTLSTGKDIWEKLS
B14: PRT-117 (protein)
chain: MRNATEAYAKEVPHTITSVWTKGVTPPTPEQFTYQNEDVFHAPYLANQGWYDITKTFNGKDNLLCGAATAGNMLHWWFDQNKEEIERYLSKHPEKQKIIFNNQELFDLKAAIDTKDSQTNSALFNYFRDKAFPNLSARQLGVMPDLVLDMFINGYYLNVFKTQSTDVNRPYQDKDKRGGIFDAVFTRGDQTTLLTARHDLKNKGLNDISDLIKQELTEGKALALSHTYANVSISHVINLWGADFNAEGNLEAIYVTDSDANASIGMKKYFVGVNTAGKVAISAKKIEGENIGAQVLGLFTLSSGKDIWEQLS

The data set concerns the target pooled human IgG.
In turn, B1 had an Enzyme Activity Endpoint Assay (purified): Fab'2 of 15 ng/µL, an Enzyme Activity Endpoint Assay (purified): Fc of 96 ng/µL, an Enzyme Activity Endpoint Assay (purified): IgG of 0 ng/µL and an Enzyme Activity Endpoint Assay (purified): scIgG of 133 ng/µL.
Taken in the same sequence, the figures for B2 were 124 ng/µL, 128 ng/µL, 24 ng/µL and 105 ng/µL.
As to B3, the Enzyme Activity Endpoint Assay (purified): Fab'2 was 23 ng/µL, the Enzyme Activity Endpoint Assay (purified): Fc came out at 85 ng/µL, the Enzyme Activity Endpoint Assay (purified): IgG is 0 ng/µL and the Enzyme Activity Endpoint Assay (purified): scIgG was 153 ng/µL.
Turning to B4, the Enzyme Activity Endpoint Assay (purified): Fab'2 is 468 ng/µL, the Enzyme Activity Endpoint Assay (purified): Fc is 187 ng/µL, the Enzyme Activity Endpoint Assay (purified): IgG turned out to be 0 ng/µL and the Enzyme Activity Endpoint Assay (purified): scIgG was found to be 0 ng/µL.
Protein B5 came in with an Enzyme Activity Endpoint Assay (purified): Fab'2 of 510 ng/µL, an Enzyme Activity Endpoint Assay (purified): Fc of 188 ng/µL, an Enzyme Activity Endpoint Assay (purified): IgG of 0 ng/µL and an Enzyme Activity Endpoint Assay (purified): scIgG of 0 ng/µL.
As for B6, the Enzyme Activity Endpoint Assay: Fab′2 came out at 2 ng/µL, the Enzyme Activity Endpoint Assay: Fc came to 56 ng/µL, the Enzyme Activity Endpoint Assay: IgG worked out at 32 ng/µL and the Enzyme Activity Endpoint Assay: scIgG amounted to 58 ng/µL.
B7 showed an Enzyme Activity Endpoint Assay (purified): Fab'2 of 361 ng/µL, an Enzyme Activity Endpoint Assay (purified): Fc of 162 ng/µL, an Enzyme Activity Endpoint Assay (purified): IgG of 129 ng/µL and an Enzyme Activity Endpoint Assay (purified): scIgG of 111 ng/µL.
B8 came in with an Enzyme Activity Endpoint Assay (purified): Fab'2 of 676 ng/µL, an Enzyme Activity Endpoint Assay (purified): Fc of 202 ng/µL, an Enzyme Activity Endpoint Assay (purified): IgG of 0 ng/µL and an Enzyme Activity Endpoint Assay (purified): scIgG of 0 ng/µL.
The protein B9 came in with an Enzyme Activity Endpoint Assay (purified): Fab'2 of 609 ng/µL, an Enzyme Activity Endpoint Assay (purified): Fc of 197 ng/µL, an Enzyme Activity Endpoint Assay (purified): IgG of 0 ng/µL and an Enzyme Activity Endpoint Assay (purified): scIgG of 0 ng/µL.
In turn, B10 showed an Enzyme Activity Endpoint Assay (purified): Fab'2 of 472 ng/µL, an Enzyme Activity Endpoint Assay (purified): Fc of 160 ng/µL, an Enzyme Activity Endpoint Assay (purified): IgG of 0 ng/µL and an Enzyme Activity Endpoint Assay (purified): scIgG of 0 ng/µL.
Consider B11, for which the Enzyme Activity Endpoint Assay (purified): Fab'2 was 92 ng/µL, the Enzyme Activity Endpoint Assay (purified): Fc came to 113 ng/µL, the Enzyme Activity Endpoint Assay (purified): IgG came to 28 ng/µL and the Enzyme Activity Endpoint Assay (purified): scIgG came out at 153 ng/µL.
As to B12, the Enzyme Activity Endpoint Assay (purified): Fab'2 was determined as 565 ng/µL, the Enzyme Activity Endpoint Assay (purified): Fc was 194 ng/µL, the Enzyme Activity Endpoint Assay (purified): IgG stood at 138 ng/µL and the Enzyme Activity Endpoint Assay (purified): scIgG is 0 ng/µL.
Protein B13 returned an Enzyme Activity Endpoint Assay (purified): Fab'2 of 447 ng/µL, an Enzyme Activity Endpoint Assay (purified): Fc of 174 ng/µL, an Enzyme Activity Endpoint Assay (purified): IgG of 0 ng/µL and an Enzyme Activity Endpoint Assay (purified): scIgG of 0 ng/µL.
As for B14, the Enzyme Activity Endpoint Assay (purified): Fab'2 was 663 ng/µL, the Enzyme Activity Endpoint Assay (purified): Fc stood at 207 ng/µL, the Enzyme Activity Endpoint Assay (purified): IgG was 0 ng/µL and the Enzyme Activity Endpoint Assay (purified): scIgG was determined as 0 ng/µL.
